Reference: paper PMC9555727 (Chemical Science, 2022)
“And” between values parts separate entries of the source, which are not always exact repeats. Identical values can stand only once. Like-named read-outs stand apart in the source and are kept apart here. Each block holds one molecule with its values, some of them ahead of it.

How the values were obtained:
[1] = target: NadK (E. coli BL21 (DE3)); test: native MS; online buffer exchange MS; proteins diluted in 50 mM HEPES, 50 mM NaCl pH 7.4 (FabG: 25 mM tricine, 50 mM NaCl pH 8.5), overnight at 4 °C, exchanged online to 200 mM ammonium acetate pH 6.8; range of concentrations 40-0.15 μM before dilution; DeoC: apparent affinity, dimer to monomers, fit of eqn (1)
[2] = target: NadK (E. coli BL21 (DE3)); test: SAXS; EMBL P12 beamline, 20 °C, four concentrations between about 10 and 90 μM; MM from I(0) and equilibrium fit with OLIGOMER on PDB structures
[3] = target: NadK (E. coli BL21 (DE3)); test: SEC; 30 μg protein on Superdex 200 Increase 10/300 GL in PBS pH 7.4; MM from a standard curve of elution volumes
[4] = target: Superoxide dismutase (SodA) (E. coli BL21 (DE3)); test: mass photometry; protein stocks diluted in PBS pH 7.4 to nanomolar concentrations (~100 nM) immediately before measurement; detection threshold ~40 kDa
[5] = target: Superoxide dismutase (SodA) (E. coli BL21 (DE3)); test: native MS; online buffer exchange MS; proteins diluted in 50 mM HEPES, 50 mM NaCl pH 7.4 (FabG: 25 mM tricine, 50 mM NaCl pH 8.5), overnight at 4 °C, exchanged online to 200 mM ammonium acetate pH 6.8; range of concentrations 40-0.15 μM before dilution; DeoC: apparent affinity, dimer to monomers, fit of eqn (1)
[6] = target: Superoxide dismutase (SodA) (E. coli BL21 (DE3)); test: SAXS; EMBL P12 beamline, 20 °C, four concentrations between about 10 and 90 μM; MM from I(0) and equilibrium fit with OLIGOMER on PDB structures
[7] = target: Superoxide dismutase (SodA) (E. coli BL21 (DE3)); test: SEC; 30 μg protein on Superdex 200 Increase 10/300 GL in PBS pH 7.4; MM from a standard curve of elution volumes
Can (E. coli BL21 (DE3)) = test: not stated; summary of the solution experiments on the 17 proteins (native MS, MP, SEC, SAXS); which method gave the stated form is not given; details in Table S2, Fig. 5A and Fig. 6
[8] = target: IspD (E. coli BL21 (DE3)); test: as above
[9] = target: FabG (3-oxoacyl-[acyl-carrier-protein] reductase) from E. coli-DE3 (E. coli BL21 (DE3)); test: mass photometry; protein stocks diluted in PBS pH 7.4 to nanomolar concentrations (~100 nM) immediately before measurement; detection threshold ~40 kDa
[10] = target: FabG (3-oxoacyl-[acyl-carrier-protein] reductase) from E. coli-DE3 (E. coli BL21 (DE3)); test: non-reducing SDS-PAGE; 10 μg protein without β-mercaptoethanol, heated, 4-20% gel, Coomassie stain; shows inter-protein disulfide bridges
[11] = target: FabG (3-oxoacyl-[acyl-carrier-protein] reductase) from E. coli-DE3 (E. coli BL21 (DE3)); test: native MS; online buffer exchange MS; proteins diluted in 50 mM HEPES, 50 mM NaCl pH 7.4 (FabG: 25 mM tricine, 50 mM NaCl pH 8.5), overnight at 4 °C, exchanged online to 200 mM ammonium acetate pH 6.8; range of concentrations 40-0.15 μM before dilution; DeoC: apparent affinity, dimer to monomers, fit of eqn (1)
[12] = target: FabG (3-oxoacyl-[acyl-carrier-protein] reductase) from E. coli-DE3 (E. coli BL21 (DE3)); test: SAXS; EMBL P12 beamline, 20 °C, four concentrations between about 10 and 90 μM; MM from I(0) and equilibrium fit with OLIGOMER on PDB structures
[13] = target: FabG (3-oxoacyl-[acyl-carrier-protein] reductase) from E. coli-DE3 (E. coli BL21 (DE3)); test: SEC; 30 μg protein on Superdex 200 Increase 10/300 GL in PBS pH 7.4; MM from a standard curve of elution volumes
[14] = target: FabG (3-oxoacyl-[acyl-carrier-protein] reductase) from E. coli-DE3 (E. coli BL21 (DE3)); test: SAXS; EMBL P12 beamline, 20 °C, four concentrations between about 10 and 90 μM; MM from I(0) and equilibrium fit with OLIGOMER on PDB structures; remark: listed apart in the source
[15] = target: FabG (3-oxoacyl-[acyl-carrier-protein] reductase) from E. coli-DE3 (E. coli BL21 (DE3)); test: native MS; as a1, FabG^DE3 in the presence of DTT; 2.5-40 μM
Upp (E. coli BL21 (DE3)) [16] = test: mass photometry; protein stocks diluted in PBS pH 7.4 to nanomolar concentrations (~100 nM) immediately before measurement; detection threshold ~40 kDa
Upp (E. coli BL21 (DE3)) [17] = test: not stated; summary of the solution experiments on the 17 proteins (native MS, MP, SEC, SAXS); which method gave the stated form is not given; details in Table S2, Fig. 5A and Fig. 6
[18] = target: SpeB (E. coli BL21 (DE3)); test: as above
[19] = target: the molecule itself; test: SEC; 30 μg protein on Superdex 200 Increase 10/300 GL in PBS pH 7.4; MM from a standard curve of elution volumes
[20] = target: the molecule itself; test: native MS; online buffer exchange MS; proteins diluted in 50 mM HEPES, 50 mM NaCl pH 7.4 (FabG: 25 mM tricine, 50 mM NaCl pH 8.5), overnight at 4 °C, exchanged online to 200 mM ammonium acetate pH 6.8; range of concentrations 40-0.15 μM before dilution; DeoC: apparent affinity, dimer to monomers, fit of eqn (1)

Molecule: NadK (enzyme)
- percent dimer at ∼1 μM [1]: 56%
- percent dimer at ∼40 μM [1]: 23%
- percent monomer at ∼1 μM [1]: 12%
- percent monomer at ∼40 μM [1]: 2%
- percent tetramer at ∼1 μM [1]: 32%
- percent tetramer at ∼40 μM [1]: 75%
- stoichiometry N [1]: 2 and 4
- subunit average from SAXS I(0) at 8 μM [2]: 2.37
- subunit average from SAXS I(0) at 61 μM [2]: 2.67
- stoichiometry N [3]: 2.7

Molecule: Superoxide dismutase (SodA) (enzyme)
- stoichiometry N [4]: 2
- stoichiometry N [5]: 2
- stoichiometry N [6]: 2
- stoichiometry N [7]: 2

Molecule: Can (enzyme)
- stoichiometry N (Can (E. coli BL21 (DE3))): 4

Molecule: FabG (3-oxoacyl-[acyl-carrier-protein] reductase) from E. coli-DE3 (enzyme)
- stoichiometry N [9]: 2 and 4 and 6
- percent in an inter-protein disulfide bonded dimer [10]: 50%
- stoichiometry N [11]: 6
- SAXS MM from I(0) divided by the monomer's mass [12]: 3.5
- stoichiometry N [12]: 6 and 2 and 4
- stoichiometry N [13]: 4 and 2
- SAXS MM from I(0) divided by the monomer's mass [14]: 3.7
- stoichiometry N [15]: 2 and 4

Molecule: SpeB (enzyme)
- stoichiometry N [18]: 6

B1: FabG (3-oxoacyl-[acyl-carrier-protein] reductase) from E. coli-K12 (enzyme, E. coli K12)
chain: MNFEGKIALVTGASRGIGRAIAETLAARGAKVIGTATSENGAQAISDYLGANGKGLMLNVTDPASIESVLEKIRAEFGEVDILVNNAGITRDNLLMRMKDEEWNDIIETNLSSVFRLSKAVMRAMMKKRHGRIITIGSVVGTMGNGGQANYAAAKAGLIGFSKSLAREVASRGITVNVVAPGFIETDMTRALSDDQRAGILAQVPAGRLGGAQEIANAVAFLASDEAAYITGETLHVNGGMYMV
notes: FabG, 3-oxoacyl-[acyl-carrier-protein] reductase of E. coli K12, Arg at position 167; probably the same vector, cleaved His-bdSumo tag and added N-terminal alanine as for the other proteins; also called FabG^K12; source: E. coli, purified
- stoichiometry N [19]: 2
- stoichiometry N [20]: 4

Continued, values first:

- stoichiometry N [8]: 2 and 4
Molecule: IspD (enzyme)

- stoichiometry N (Upp (E. coli BL21 (DE3)) [16]): 2
- stoichiometry N (Upp (E. coli BL21 (DE3)) [17]): 2 and 4 and 6
Molecule: Upp (enzyme)
